How the values were obtained:
[1] = biological target: Papain (UniProt P00784); experiment: cell-based or functional assay
[2] = biological target: trypsin; experiment: cell-based or functional assay

Sequence of UniProt P00784 (P00784 134-345 limits assumed): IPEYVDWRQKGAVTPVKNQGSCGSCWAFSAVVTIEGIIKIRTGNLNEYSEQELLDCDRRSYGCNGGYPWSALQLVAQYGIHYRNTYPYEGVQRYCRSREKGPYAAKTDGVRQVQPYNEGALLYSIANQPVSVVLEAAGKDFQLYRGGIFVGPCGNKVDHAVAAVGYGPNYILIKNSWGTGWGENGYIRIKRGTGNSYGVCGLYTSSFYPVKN

Substance	inhibition of papain activity (relative inhibition assay, substrate N-Cbz-Phe-Arg-7-amido-4-methylcoumarin) [1]	inhibition of trypsin activity (relative inhibition assay, substrate N-Cbz-Phe-Arg-7-amido-4-methylcoumarin) [2]
Oc-IΔD86/go/CpTI fusion protein (from UniProt P09229 39-140)	95%	95%
Oc-IΔD86/PsMTa/CpTI fusion protein (products of the construct) (from UniProt P09229 39-140)	95%	95%
